The results in this text go back to publication PMC2063981 (The Journal of Cell Biology, 2007).

The target of this assay is GST–Rab7 (wild type, loaded with GTP or GTPγS) (UniProt P51149 1-207). Briefly: pull-down.
Sequence of GST–Rab7 (wild type, loaded with GTP or GTPγS) (P51149 whole entry): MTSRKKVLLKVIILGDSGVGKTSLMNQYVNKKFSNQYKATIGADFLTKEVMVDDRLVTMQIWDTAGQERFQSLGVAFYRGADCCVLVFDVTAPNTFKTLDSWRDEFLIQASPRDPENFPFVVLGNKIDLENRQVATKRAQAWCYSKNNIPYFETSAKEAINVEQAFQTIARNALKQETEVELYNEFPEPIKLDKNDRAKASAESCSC

B1: in vitro–translated 35S-labeled ORP1L (full length) (natural protein, human, UniProt Q9BXW6-1 1-950, looked up)
chain: MNTEAEQQLLHHARNGNAEEVRQLLETMARNEVIADINCKGRSKSNLGWTPLHLACYFGHRQVVQDLLKAGAEVNVLNDMGDTPLHRAAFTGRKELVMLLLEYNADTTIVNGSGQTAKEVTHAEEIRSMLEAVERTQQRKLEELLLAAAREGKTTELTALLNRPNPPDVNCSDQLGNTPLHCAAYRAHKQCALKLLRSGADPNLKNKNDQKPLDLAQGAEMKHILVGNKVIYKALKRYEGPLWKSSRFFGWRLFWVVLEHGVLSWYRKQPDAVHNIYRQGCKHLTQAVCTVKSTDSCLFFIKCFDDTIHGFRVPKNSLQQSREDWLEAIEEHSAYSTHYCSQDQLTDEEEEDTVSAADLKKSLEKAQSCQQRLDREISNFLKMIKECDMAKEMLPSFLQKVEVVSEASRETCVALTDCLNLFTKQEGVRNFKLEQEQEKNKILSEALETLATEHHELEQSLVKGSPPASILSEDEFYDALSDSESERSLSRLEAVTARSFEEEGEHLGSRKHRMSEEKDCGGGDALSNGIKKHRTSLPSPMFSRNDFSIWSILRKCIGMELSKITMPVIFNEPLSFLQRLTEYMEHTYLIHKASSLSDPVERMQCVAAFAVSAVASQWERTGKPFNPLLGETYELVRDDLGFRLISEQVSHHPPISAFHAEGLNNDFIFHGSIYPKLKFWGKSVEAEPKGTITLELLEHNEAYTWTNPTCCVHNIIVGKLWIEQYGNVEIINHKTGDKCVLNFKPCGLFGKELHKVEGYIQDKSKKKLCALYGKWTECLYSVDPATFDAYKKNDKKNTEEKKNSKQMSTSEELDEMPVPDSESVFIIPGSVLLWRIAPRPPNSAQMYNFTSFAMVLNEVDKDMESVIPKTDCRLRPDIRAMENGEIDQASEEKKRLEEKQRAARKNRSKSEEDWKTRWFHQGPNPYNGAQDWIYSGSYWDRNYFNLPDIY
modifications: 35S-labeled
Regarding B1, the “fold increase of binding in the presence of m9” value is about 4 fold.
